# Bridge positions count the residues as written; N and C are the ends. Ends that are not written are not given here. * marks the point of attachment. Cam = NC(=O)C*
# Key:
# [1] = target: α5β1 integrin composed of human α5 and CHO β1 on B2/α27 cells (human; Chinese hamster (CHO), UniProt P08648 42-1049); assay: cell-based or functional assay
# [2] = target: αvβ1 integrin on CHO cell line B2/v7; assay: cell-based or functional assay
# [3] = target: αvβ5 integrin on HT-29 and UCLA-P3 cells (UniProt P06756 31-1048; P18084 24-799); assay: cell-based or functional assay
# Sequence of αvβ5 integrin on HT-29 and UCLA-P3 cells (P06756 31-1048, chain 1 of 2): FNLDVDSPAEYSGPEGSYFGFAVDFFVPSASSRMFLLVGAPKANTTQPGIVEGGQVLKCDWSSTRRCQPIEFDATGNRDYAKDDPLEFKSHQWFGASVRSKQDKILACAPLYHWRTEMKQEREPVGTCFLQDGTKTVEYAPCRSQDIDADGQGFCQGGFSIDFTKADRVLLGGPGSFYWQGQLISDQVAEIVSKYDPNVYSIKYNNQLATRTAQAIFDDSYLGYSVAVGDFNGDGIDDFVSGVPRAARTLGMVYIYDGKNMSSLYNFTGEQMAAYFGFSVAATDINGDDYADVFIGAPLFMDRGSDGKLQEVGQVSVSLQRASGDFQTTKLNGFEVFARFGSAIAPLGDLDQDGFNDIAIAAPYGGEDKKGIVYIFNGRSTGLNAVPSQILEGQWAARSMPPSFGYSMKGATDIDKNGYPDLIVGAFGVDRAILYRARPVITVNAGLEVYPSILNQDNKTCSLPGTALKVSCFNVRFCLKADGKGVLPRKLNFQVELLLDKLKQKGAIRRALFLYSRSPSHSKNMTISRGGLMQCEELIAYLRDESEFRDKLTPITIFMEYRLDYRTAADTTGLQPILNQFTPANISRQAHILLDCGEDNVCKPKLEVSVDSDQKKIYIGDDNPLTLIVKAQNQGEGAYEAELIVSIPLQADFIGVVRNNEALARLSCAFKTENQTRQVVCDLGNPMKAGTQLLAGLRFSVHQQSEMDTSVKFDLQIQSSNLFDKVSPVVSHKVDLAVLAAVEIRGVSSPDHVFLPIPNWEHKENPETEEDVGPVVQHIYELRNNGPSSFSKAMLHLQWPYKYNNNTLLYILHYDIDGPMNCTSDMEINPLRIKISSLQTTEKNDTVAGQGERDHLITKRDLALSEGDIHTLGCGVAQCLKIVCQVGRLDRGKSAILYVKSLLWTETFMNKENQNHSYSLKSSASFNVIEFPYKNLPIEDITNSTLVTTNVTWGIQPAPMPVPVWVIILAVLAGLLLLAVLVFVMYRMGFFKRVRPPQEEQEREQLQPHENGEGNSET
# Sequence of αvβ5 integrin on HT-29 and UCLA-P3 cells (P18084 24-799, chain 2 of 2): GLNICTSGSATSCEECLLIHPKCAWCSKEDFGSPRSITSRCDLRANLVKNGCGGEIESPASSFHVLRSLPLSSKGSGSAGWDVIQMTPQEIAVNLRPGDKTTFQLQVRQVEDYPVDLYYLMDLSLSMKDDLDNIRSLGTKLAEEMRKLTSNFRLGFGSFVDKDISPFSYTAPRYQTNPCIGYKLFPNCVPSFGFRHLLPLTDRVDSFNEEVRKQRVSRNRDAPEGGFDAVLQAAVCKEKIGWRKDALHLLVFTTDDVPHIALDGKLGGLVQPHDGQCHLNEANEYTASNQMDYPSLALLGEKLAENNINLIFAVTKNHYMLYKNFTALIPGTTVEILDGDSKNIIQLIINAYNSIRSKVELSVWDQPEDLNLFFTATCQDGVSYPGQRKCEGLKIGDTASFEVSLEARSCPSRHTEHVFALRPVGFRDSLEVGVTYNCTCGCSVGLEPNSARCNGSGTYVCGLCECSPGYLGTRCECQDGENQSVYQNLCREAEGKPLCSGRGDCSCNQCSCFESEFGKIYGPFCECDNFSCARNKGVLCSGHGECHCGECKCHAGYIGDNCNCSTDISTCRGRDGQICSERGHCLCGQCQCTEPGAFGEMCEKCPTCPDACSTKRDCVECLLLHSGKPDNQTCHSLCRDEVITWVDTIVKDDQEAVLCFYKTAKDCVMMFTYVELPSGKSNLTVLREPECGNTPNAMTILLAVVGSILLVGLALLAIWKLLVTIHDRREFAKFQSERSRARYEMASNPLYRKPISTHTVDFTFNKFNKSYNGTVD
# [4] = target: αvβ3 integrin on IMR-90 cells (UniProt P06756 31-1048; P05106 27-788); assay: cell-based or functional assay
# Sequence of αvβ3 integrin on IMR-90 cells (P06756 31-1048, chain 1 of 2): as the sequence (P06756 31-1048, chain 1 of 2) above
# Sequence of αvβ3 integrin on IMR-90 cells (P05106 27-788, chain 2 of 2): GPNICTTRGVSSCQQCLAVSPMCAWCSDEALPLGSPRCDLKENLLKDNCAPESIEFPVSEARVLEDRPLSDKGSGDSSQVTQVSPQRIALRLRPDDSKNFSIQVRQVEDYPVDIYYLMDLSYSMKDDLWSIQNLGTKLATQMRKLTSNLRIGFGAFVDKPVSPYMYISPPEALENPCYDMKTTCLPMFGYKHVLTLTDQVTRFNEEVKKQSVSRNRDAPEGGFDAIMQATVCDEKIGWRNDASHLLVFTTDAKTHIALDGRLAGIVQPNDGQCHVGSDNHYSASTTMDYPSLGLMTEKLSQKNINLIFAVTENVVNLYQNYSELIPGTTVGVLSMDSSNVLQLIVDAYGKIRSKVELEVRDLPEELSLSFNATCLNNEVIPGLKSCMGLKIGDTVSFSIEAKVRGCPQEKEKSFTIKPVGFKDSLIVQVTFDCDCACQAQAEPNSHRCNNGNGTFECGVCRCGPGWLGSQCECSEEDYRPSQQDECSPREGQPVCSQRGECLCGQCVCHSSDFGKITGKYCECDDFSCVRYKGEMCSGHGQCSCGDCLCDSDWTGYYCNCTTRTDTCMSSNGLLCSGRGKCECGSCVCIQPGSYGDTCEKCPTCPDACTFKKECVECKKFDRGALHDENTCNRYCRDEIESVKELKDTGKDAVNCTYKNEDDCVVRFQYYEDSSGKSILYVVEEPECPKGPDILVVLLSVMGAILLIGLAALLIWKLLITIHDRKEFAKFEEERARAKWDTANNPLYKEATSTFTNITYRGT
# [5] = target: T1, αvβ3 integrin isolated from human placental extract (human, UniProt P06756 31-1048; P05106 27-788); assay: competition with phage on αvβ3-coated wells
# T1 construct: isolated on GRGDSPK-Sepharose; said to be primarily αvβ3
# T1 sequence (P06756 31-1048, chain 1 of 2): as the sequence (P06756 31-1048, chain 1 of 2) above
# T1 sequence (P05106 27-788, chain 2 of 2): as the sequence (P05106 27-788, chain 2 of 2) above
# [6] = target: T2, αvβ5 integrin isolated from human placental extract (human, UniProt P06756 31-1048; P18084 24-799); assay: competition with … phage on αvβ5-coated wells
# T2 sequence (P06756 31-1048, chain 1 of 2): as the sequence (P06756 31-1048, chain 1 of 2) above
# T2 sequence (P18084 24-799, chain 2 of 2): as the sequence (P18084 24-799, chain 2 of 2) above
# Experimental: [SEQ ID NO:10] sequence were incubated for 1 hour in integrin-coated wells in the presence of the competing peptides or dimethyl sulfoxide solvent as a control.
# [7] = target: T1, αvβ3 integrin isolated from human …; assay: affinity chromatography of placental extract
# [8] = target: T3, α5β1 integrin isolated from human placental extract (human, UniProt P08648 42-1049; P05556 21-798); assay: competition with RRETAWA phage on α5β1-coated wells
# T3 construct: coated on plastic wells or captured by anti-α5 antibody; also called fibronectin receptor
# T3 sequence (P08648 42-1049, chain 1 of 2): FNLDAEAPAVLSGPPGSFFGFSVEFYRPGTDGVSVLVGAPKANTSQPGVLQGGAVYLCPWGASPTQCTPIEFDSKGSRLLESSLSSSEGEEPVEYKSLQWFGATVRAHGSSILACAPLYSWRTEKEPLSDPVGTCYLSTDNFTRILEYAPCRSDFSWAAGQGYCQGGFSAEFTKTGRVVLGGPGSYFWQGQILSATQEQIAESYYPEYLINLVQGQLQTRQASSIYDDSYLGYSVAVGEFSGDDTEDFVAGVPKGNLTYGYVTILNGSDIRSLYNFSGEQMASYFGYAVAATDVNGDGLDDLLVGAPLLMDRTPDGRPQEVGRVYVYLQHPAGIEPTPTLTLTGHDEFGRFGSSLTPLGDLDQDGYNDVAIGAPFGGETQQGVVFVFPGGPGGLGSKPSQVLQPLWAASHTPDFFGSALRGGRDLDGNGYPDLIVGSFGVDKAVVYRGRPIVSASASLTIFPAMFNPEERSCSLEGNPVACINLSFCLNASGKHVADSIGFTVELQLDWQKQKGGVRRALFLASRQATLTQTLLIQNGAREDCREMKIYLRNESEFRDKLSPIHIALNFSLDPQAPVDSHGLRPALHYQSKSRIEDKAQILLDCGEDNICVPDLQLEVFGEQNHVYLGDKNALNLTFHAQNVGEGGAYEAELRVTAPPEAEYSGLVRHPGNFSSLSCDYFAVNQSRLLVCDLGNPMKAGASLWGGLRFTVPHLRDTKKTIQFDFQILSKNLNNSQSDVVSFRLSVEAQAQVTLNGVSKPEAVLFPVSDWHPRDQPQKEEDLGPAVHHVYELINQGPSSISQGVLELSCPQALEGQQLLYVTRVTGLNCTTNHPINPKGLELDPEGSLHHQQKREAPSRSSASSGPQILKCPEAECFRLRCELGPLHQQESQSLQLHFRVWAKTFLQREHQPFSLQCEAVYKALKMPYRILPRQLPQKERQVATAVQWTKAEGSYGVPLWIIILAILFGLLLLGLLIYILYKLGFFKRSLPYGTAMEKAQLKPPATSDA
# T3 sequence (P05556 21-798, chain 2 of 2): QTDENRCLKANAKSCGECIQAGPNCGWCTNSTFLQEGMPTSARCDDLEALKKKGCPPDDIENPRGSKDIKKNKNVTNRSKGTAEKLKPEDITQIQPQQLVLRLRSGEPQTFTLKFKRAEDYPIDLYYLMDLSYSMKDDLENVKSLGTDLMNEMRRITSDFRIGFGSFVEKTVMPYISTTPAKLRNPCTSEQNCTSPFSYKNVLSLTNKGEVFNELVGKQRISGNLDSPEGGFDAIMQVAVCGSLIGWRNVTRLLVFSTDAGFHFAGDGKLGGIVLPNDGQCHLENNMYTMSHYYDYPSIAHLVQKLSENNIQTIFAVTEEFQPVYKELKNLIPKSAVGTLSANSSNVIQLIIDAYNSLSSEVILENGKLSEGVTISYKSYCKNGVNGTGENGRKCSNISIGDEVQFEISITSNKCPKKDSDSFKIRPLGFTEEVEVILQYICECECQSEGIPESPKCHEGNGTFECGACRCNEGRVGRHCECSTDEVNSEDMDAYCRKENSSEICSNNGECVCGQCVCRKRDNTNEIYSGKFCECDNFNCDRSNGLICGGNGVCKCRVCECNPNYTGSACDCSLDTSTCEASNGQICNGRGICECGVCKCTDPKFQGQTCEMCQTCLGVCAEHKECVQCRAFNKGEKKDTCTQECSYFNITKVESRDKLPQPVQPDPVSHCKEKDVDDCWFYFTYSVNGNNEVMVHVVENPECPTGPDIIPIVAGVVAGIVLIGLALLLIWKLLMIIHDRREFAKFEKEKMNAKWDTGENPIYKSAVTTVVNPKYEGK
# [9] = target: T1, αvβ3 integrin isolated from human …; assay: competition with CRGDCL phage on αvβ3-coated wells
# Experimental: The ability of […] […] [SEQ ID NO:5] was added to compete for binding. Binding was quantitated as described above.
# [10] = target: T1, αvβ3 integrin isolated from human …; assay: phage panning on coated integrin
# Experimental: In the first panning, the integrins were coated at 5 µg per well, and the library pool was incubated for 4 hours at 25° C. in TBS buffer containing 1% bovine serum albumin and 1 mM MnCl_2 (α_5β_1, α_vβ_3) 1 mM MgCl_2 ($\alphaIIb\beta_3$) or 1 mM CaCl_2 (α_vβ_5).
# [11] = target: T3, α5β1 integrin isolated from human …; assay: phage binding to integrin-coated wells
# [12] = target: T2, αvβ5 integrin isolated from human …; assay: affinity chromatography of placental extract
# [13] = target: T3, α5β1 integrin isolated from human …; assay: phage binding to α5β1-coated wells
# [14] = target: T1, αvβ3 integrin isolated from human …; assay: phage competition on αvβ3-coated wells
# [15] = target: T2, αvβ5 integrin isolated from human …; assay: phage competition on αvβ5-coated wells
# [16] = target: T3, α5β1 integrin isolated from human …; assay: phage panning on coated integrin
# Sequence of α5β1 integrin composed of human α5 and CHO β1 on B2/α27 cells (P08648 42-1049): as the sequence (P08648 42-1049, chain 1 of 2) above
Binder,binding result [16],further results
GACRRETAWACGA (disulfide 3-11 (inferred)) [cyclic peptide GACRRETAWACGA],,"IC50 of inhibition of cell attachment to fibronectin (B2/α27 cells) [1]: 30000 nM; fold less active than the cyclic RGD peptide, inhibition of cell attachment to fibronectin [2]: > 100 ×; fold less active than …, inhibition of cell attachment to fibronectin [2]: ~40 ×"
GACELRGDGWCGA (disulfide 3-11 (inferred)) [cyclic peptide GAC*ELRGDGWC*GA],,"fold less active than A*CRGDGWC*G, cell attachment to fibronectin [1]: 10 fold"
"ACDCRGDCFCG (disulfide (positions not given here); also: two disulfide bonds, pairing not determined, synthetic; also called double disulfide bond-containing peptide) [cyclized peptide ACDCRGDCFCG]",,"IC50 of inhibition of attachment of HT-29 cells to vitronectin [3]: 600 nM; IC50 of inhibition of attachment of UCLA-P3 cells to vitronectin [3]: 600 nM; fold enhancement in activity relative to *CRGDC*, UCLA-P3 cells [3]: 20 fold; fold higher affinity than *CRGDC*, attachment of HT-29 cells to vitronectin [3]: 40 fold; fold higher affinity than A*CRGDGWC*G, attachment of HT-29 cells to vitronectin [3]: 40 fold; IC50 of inhibition of attachment of IMR-90 cells to vitronectin [4]: 200 nM; fold more effective than *CRGDC*, attachment of IMR-90 cells to vitronectin [4]: 20 fold; fold better inhibition than *CRGDC* [5]: 5 fold; fold more potent than *CRGDC* [6]: 10 fold"
GAC(Cam)RRETAWAC(Cam)GA [GACRRETAWACGA linearized by reduction and alkylation],,"fold reduction of activity against the cyclic peptide, cell attachment to fibronectin [1]: ~50 ×"
"GRGDSPK (also: coupled to Sepharose, also called GRGDSPK peptide column) [Sepharose-coupled GRGDSPK peptide]",,binding result [7]: binds
"GACRGDCLGA (disulfide 3-7 (inferred), synthetic; also called cyclic CRGDCL peptide) [cyclic peptide GACRGDCLGA]",,binding result [8]: binds; binding result [9]: binds
"CPSRLDSPC (disulfide 1-9 (inferred); not fully specified (N-terminus, C-terminus), on fuse 5 phage, fused to pIII; also called RLD-containing phage) [CPSRLDSPC phage]",,binding result [10]: binds; binding result [11]: no binding
"vitronectin purified from human plasma (ligand, UniProt P04004 20-478, looked up, also called labeled vitronectin) DQESCKGRCTEGFNVDKKCQCDELCSYYQSCCTDYTAECKPQVTRGDVFTMPEDEYTVYDDGEEKNNATVHEQVGGPSLTSDLQAQSKGNPEQTPVLKPEEEAPAPEVGASKPEGIDSRPETLHPGRPQPPAEEELCSGKPFDAFTDLKNGSLFAFRGQYCYELDEKAVRPGYPKLIRDVWGIEGPIDAAFTRINCQGKTYLFKGSQYWRFEDGVLDPDYPRNISDGFDGIPDNVDAALALPAHSYSGRERVYFFKGKQYWEYQFQHQPSQEECEGSSLSAVFEHFAMMQRDSWEDIFELLFWGRTSAGTRQPQFISRDWHGVPGQVDAAMAGRIYISGMAPRPSLAKKQRFRHRNRKGYRSQRGHSRGRNQNSRRPSRATWLSLFSSEESNLGANNYDDYRMDWLVPATCEPIQSVFFFSGDKYYRVNLRTRRVDTVDPPYPRSIAQYWLGCPAPGHL",,binding result [12]: binds
"CRGDCL (on fuse 5 phage, fused to pIII; also called phage expressing CRGDCL) [CRGDCL-displaying phage]",,binding result [13]: binds
"ACPSRLDSPCG (disulfide 2-10 (inferred), synthetic; also called RLD-containing peptide) [cyclic peptide A*CPSRLDSPC*G]",,fold lower activity than *CRGDC* [14]: 100 fold; fold lower activity than *CRGDC* [15]: 1000 fold
"ACRRETAWAC (on fuse 5 phage, fused to pIII) [ACRRETAWAC phage]",binds,
"ECRRETAWGC (on fuse 5 phage, fused to pIII) [ECRRETAWGC phage]",binds,
"ECRRETAWSC (on fuse 5 phage, fused to pIII) [ECRRETAWSC phage]",binds,
"ECRRETAWWC (on fuse 5 phage, fused to pIII) [ECRRETAWWC phage]",binds,
"GCRKETAWAC (on fuse 5 phage, fused to pIII) [GCRKETAWAC phage]",binds,
"GCRRETAWAC (on fuse 5 phage, fused to pIII) [GCRRETAWAC phage]",binds,
"GCRRETEWAC (on fuse 5 phage, fused to pIII) [GCRRETEWAC phage]",binds,
"HCRRETAWAC (on fuse 5 phage, fused to pIII) [HCRRETAWAC phage]",binds,
"VCRKETAWAC (on fuse 5 phage, fused to pIII) [VCRKETAWAC phage]",binds,

Binder,binding result [16],further results
"SCRRETQWHC (on fuse 5 phage, fused to pIII) [SCRRETQWHC phage]",binds,
"WCRGETAWAC (on fuse 5 phage, fused to pIII) [WCRGETAWAC phage]",binds,
"WCRPETGWRC (on fuse 5 phage, fused to pIII) [WCRPETGWRC phage]",binds,
"GCREETAWQC (on fuse 5 phage, fused to pIII) [GCREETAWQC phage]",binds,
"WCREETGWWC (on fuse 5 phage, fused to pIII) [WCREETGWWC phage]",binds,
"SCREETGWGC (on fuse 5 phage, fused to pIII) [SCREETGWGC phage]",binds,
"PCREETAWRC (on fuse 5 phage, fused to pIII) [PCREETAWRC phage]",binds,
"SCRDETLWWC (on fuse 5 phage, fused to pIII) [SCRDETLWWC phage]",binds,
"RCREETAWAC (on fuse 5 phage, fused to pIII) [RCREETAWAC phage]",binds,
"RCREETLWAC (on fuse 5 phage, fused to pIII) [RCREETLWAC phage]",binds,
"RCRSETAWAC (on fuse 5 phage, fused to pIII) [RCRSETAWAC phage]",binds,
"RCRAETGWAC (on fuse 5 phage, fused to pIII) [RCRAETGWAC phage]",binds,
"DCRRETSWAC (on fuse 5 phage, fused to pIII) [DCRRETSWAC phage]",binds,
"WCRRETNWAC (on fuse 5 phage, fused to pIII) [WCRRETNWAC phage]",binds,
"SCRAETAWMC (on fuse 5 phage, fused to pIII) [SCRAETAWMC phage]",binds,
"ACRAETAWRC (on fuse 5 phage, fused to pIII) [ACRAETAWRC phage]",binds,
"YCRPETAWAC (on fuse 5 phage, fused to pIII) [YCRPETAWAC phage]",binds,
"DCRRETAWRC (on fuse 5 phage, fused to pIII) [DCRRETAWRC phage]",binds,
"DCRHETAWAC (on fuse 5 phage, fused to pIII) [DCRHETAWAC phage]",binds,

# Reference: patent publication US7067619 (LA JOLLA CANCER RESEARCH FOUNDATION, dated 2006)
